We go through 7 molecules from PMC8574189, “Surface-induced dissociation of protein complexes on a cyclic ion mobility spectrometer†” (The Analyst, 2021).

The target of data set [1] is streptavidin homotetramer (UniProt P22629). Briefly: native MS; nanoelectrospray, 200 mM ammonium acetate, or charge-reduced in 160 mM ammonium acetate with 40 mM TEAA or EDDA; 5–10 μM protein complex; cyclic IMS (cIMS) and Synapt G2; TRAP with 14 equivalents of trp.
Data set [2] deals with αβγHis heterotrimer of His-tagged toyocamycin nitrile hydratase (TNH). The data set is described as above.
For data set [3], the target named is alcohol dehydrogenase tetramer (from saccharomyces cerevisiae) (saccharomyces cerevisiae) (UniProt P00330). The data set is described as above.
Data set [4] concerns the molecule itself. The description is as above.
The data set “native MS” deals with the molecule itself. Briefly: native MS.
For data set [5], the target named is T1, C-reactive protein pentamer, P02741.
T1 chain: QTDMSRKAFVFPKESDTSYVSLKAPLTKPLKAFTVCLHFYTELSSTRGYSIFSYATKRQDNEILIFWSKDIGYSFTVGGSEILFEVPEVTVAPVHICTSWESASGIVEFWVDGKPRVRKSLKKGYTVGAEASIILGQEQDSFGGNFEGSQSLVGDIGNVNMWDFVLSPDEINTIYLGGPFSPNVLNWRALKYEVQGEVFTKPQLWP
Briefly: native MS; nanoelectrospray, 200 mM ammonium acetate, or charge-reduced in 160 mM ammonium acetate with 40 mM TEAA or EDDA; 5–10 μM protein complex; cyclic IMS (cIMS) and Synapt G2; TRAP with 14 equivalents of trp. To be noted: remark: other sources report otherwise.

The stoichiometry N is the number of molecules, sites or subunits per partner or assembly. As for “streptavidin homotetramer (from UniProt P22629 25-183) (natural protein)”, the stoichiometry N in data set [1] turned out to be 4.

“αβγHis heterotrimer of His-tagged toyocamycin nitrile hydratase (TNH) (complex)”: the stoichiometry N in data set [2] worked out at 2.

Take “alcohol dehydrogenase tetramer (from saccharomyces cerevisiae) (from UniProt P00330 1-348) (enzyme)”: the stoichiometry N in data set [3] came to 4.

B1: trp RNA binding attenuation protein (TRAP) homo-11mer (natural protein, UniProt Q9X6J6 1-74, looked up)
chain: MYTNSDFVVIKALEDGVNVIGLTRGADTRFHHSEKLDKGEVLIAQFTEHTSAIKVRGKAYIQTRHGVIESEGKK
notes: 91 kDa homo-11mer; it could be B. subtilis; also called holoTRAP; source: obtained from the Foster group (The Ohio State University) and the Gollnick group (State University of NY, Buffalo); copies: 11
As to B1, in data set [4], the “stoichiometry N” value came to 11.

B2: cholera toxin B homopentamer (natural protein)
chain: TPQNITDLCAEYHNTQIYTLNDKIFSYTESLAGKREMAIITFKNGAIFQVEVPGSQHIDSQKKAIERMKDTLRIAYLTEAKVEKLCVWNNKTPHAIAAISMAN
notes: also called 58 kDa cholera toxin B homopentamer
Turning to B2, the “stoichiometry N” value in the data set “native MS” is 5.

B3: C-reactive protein pentamer, P02741 19-224 (natural protein)
chain: T1 chain
With B3, the stoichiometry N in data set [5] was found to be 5.

B4: phosphorylase B dimer from rabbit muscle (enzyme, UniProt P00489 1-843, looked up)
chain: MSRPLSDQEKRKQISVRGLAGVENVTELKKNFNRHLHFTLVKDRNVATPRDYYFALAHTVRDHLVGRWIRTQQHYYEKDPKRIYYLSLEFYMGRTLQNTMVNLALENACDEATYQLGLDMEELEEIEEDAGLGNGGLGRLAACFLDSMATLGLAAYGYGIRYEFGIFNQKICGGWQMEEADDWLRYGNPWEKARPEFTLPVHFYGRVEHTSQGAKWVDTQVVLAMPYDTPVPGYRNNVVNTMRLWSAKAPNDFNLKDFNVGGYIQAVLDRNLAENISRVLYPNDNFFEGKELRLKQEYFVVAATLQDIIRRFKSSKFGCRDPVRTNFDAFPDKVAIQLNDTHPSLAIPELMRVLVDLERLDWDKAWEVTVKTCAYTNHTVLPEALERWPVHLLETLLPRHLQIIYEINQRFLNRVAAAFPGDVDRLRRMSLVEEGAVKRINMAHLCIAGSHAVNGVARIHSEILKKTIFKDFYELEPHKFQNKTNGITPRRWLVLCNPGLAEIIAERIGEEYISDLDQLRKLLSYVDDEAFIRDVAKVKQENKLKFAAYLEREYKVHINPNSLFDVQVKRIHEYKRQLLNCLHVITLYNRIKKEPNKFVVPRTVMIGGKAAPGYHMAKMIIKLITAIGDVVNHDPVVGDRLRVIFLENYRVSLAEKVIPAADLSEQISTAGTEASGTGNMKFMLNGALTIGTMDGANVEMAEEAGEENFFIFGMRVEDVDRLDQRGYNAQEYYDRIPELRQIIEQLSSGFFSPKQPDLFKDIVNMLMHHDRFKVFADYEEYVKCQERVSALYKNPREWTRMVIRNIATSGKFSSDRTIAQYAREIWGVEPSRQRLPAPDEKIP
notes: glycogen phosphorylase b from rabbit muscle; 195 kDa dimer; also called PHB; source: from rabbit muscle, bought: Sigma Aldrich (lyophilized powder)
As for B4, the “stoichiometry N” value in data set [4] was 2.
